Article PMC4485320

Columns and labels:
[1] = biological target: E. coli thioredoxin reductase (Escherichia coli) (UniProt P0A9P4)
[2] = biological target: E. coli thioredoxin reductase (Escherichia coli) (UniProt P0A9P4); remark: listed apart in the source

Chain of UniProt P0A9P4 (P0A9P4 whole entry): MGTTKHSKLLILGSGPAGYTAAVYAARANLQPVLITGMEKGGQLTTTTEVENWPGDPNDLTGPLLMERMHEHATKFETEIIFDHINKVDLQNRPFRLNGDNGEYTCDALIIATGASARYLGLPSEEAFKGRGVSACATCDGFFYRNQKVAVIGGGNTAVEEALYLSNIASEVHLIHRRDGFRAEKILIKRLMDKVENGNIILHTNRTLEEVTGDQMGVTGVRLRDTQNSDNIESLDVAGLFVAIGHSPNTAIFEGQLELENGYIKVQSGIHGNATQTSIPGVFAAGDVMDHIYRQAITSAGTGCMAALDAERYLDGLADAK

kcat/KM of the reduction of Trx by TrxR [1]: > 1e+06 M⁻¹ s⁻¹ | kcat of the reduction of the Trx variant by TrxR (Michaelis-Menten kinetics, DTNB/NADPH assay) [2]: 10 s⁻¹
Substance: Escherichia coli thioredoxin, wild type (from UniProt P0AA25 1-109) (natural protein)
